What was measured:
[1] = target: endogenous MISRII of the mouse ovarian cancer cell line MOVCAR7 (mouse) (UniProt Q8K592); assay: cell-based or functional assay
[2] = target: rat MISRII receptor (MIS type II receptor), transiently expressed in COS7 cells (rat) (UniProt Q62893); assay: cell-based or functional assay
Chain of rat MISRII receptor (MIS type II receptor), transiently expressed in COS7 cells (rat) (Q62893 18-557): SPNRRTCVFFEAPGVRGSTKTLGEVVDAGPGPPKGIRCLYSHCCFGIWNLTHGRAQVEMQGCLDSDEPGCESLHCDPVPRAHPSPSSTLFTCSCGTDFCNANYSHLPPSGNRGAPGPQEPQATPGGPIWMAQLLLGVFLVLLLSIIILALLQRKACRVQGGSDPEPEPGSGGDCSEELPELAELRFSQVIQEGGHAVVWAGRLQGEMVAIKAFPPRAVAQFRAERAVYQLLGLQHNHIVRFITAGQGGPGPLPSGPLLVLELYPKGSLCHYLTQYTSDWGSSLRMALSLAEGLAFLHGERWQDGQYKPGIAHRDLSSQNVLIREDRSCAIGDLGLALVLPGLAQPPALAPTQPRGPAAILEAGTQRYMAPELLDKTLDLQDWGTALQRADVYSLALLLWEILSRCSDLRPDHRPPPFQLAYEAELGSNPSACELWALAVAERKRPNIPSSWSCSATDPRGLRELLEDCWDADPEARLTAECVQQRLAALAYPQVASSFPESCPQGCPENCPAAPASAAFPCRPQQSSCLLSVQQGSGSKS

Chain of endogenous MISRII of the mouse ovarian cancer cell line MOVCAR7 (mouse) (Q8K592 16-568): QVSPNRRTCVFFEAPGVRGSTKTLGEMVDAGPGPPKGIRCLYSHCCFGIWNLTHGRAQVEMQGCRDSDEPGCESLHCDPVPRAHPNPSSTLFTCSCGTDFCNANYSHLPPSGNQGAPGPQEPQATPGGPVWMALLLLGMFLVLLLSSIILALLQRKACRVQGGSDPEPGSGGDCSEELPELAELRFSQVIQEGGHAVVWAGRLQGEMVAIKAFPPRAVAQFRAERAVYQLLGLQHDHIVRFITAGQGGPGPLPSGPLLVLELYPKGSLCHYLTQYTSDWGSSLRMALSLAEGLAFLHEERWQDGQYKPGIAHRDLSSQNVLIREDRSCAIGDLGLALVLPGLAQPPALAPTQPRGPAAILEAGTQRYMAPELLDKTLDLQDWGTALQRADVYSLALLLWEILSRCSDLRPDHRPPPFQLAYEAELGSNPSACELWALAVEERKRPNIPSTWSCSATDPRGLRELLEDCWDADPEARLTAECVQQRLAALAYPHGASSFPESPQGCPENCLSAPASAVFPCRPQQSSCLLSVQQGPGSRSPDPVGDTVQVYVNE

For “Recombinant human Mullerian Inhibiting Substance (MIS) (from UniProt P03971 25-560) (ligand)”, the BRE-luciferase activity in MOVCAR7 cells, fold increase over untreated cells, 24 h [1] was 2 fold and the BRE-luciferase reporter expression in MISRII-transfected COS7 cells, fold induction, 24 h [2] was greater than 10 fold.
